Measured values from patent publication US20120190819A1 (MEDICAL RESEARCH COUNCIL, published 2012).

T1: carboxymethylated papain on agarose beads (Calbiochem) (UniProt P00784 134-345, carboxymethylated)
T1 construct: also called immobilized papain; papain-agarose beads
T1 sequence (looked up): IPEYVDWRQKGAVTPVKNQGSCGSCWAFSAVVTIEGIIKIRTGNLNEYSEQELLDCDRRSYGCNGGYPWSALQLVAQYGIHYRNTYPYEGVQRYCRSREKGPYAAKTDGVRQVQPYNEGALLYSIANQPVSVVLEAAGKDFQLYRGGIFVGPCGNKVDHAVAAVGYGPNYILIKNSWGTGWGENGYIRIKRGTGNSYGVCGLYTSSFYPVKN


Assays:
[1] = biological target: T2, SH3 domain of yeast Sho1p (yeast two-hybrid bait, pEG202-Sho1-SH3) (yeast, UniProt P40073 300-367, limits assumed); experiment: yeast two-hybrid screen, confirmed by interaction mating
T2 construct: domain: SH3 domain; also called Sho1p SH3 domain
Excerpt: (§1) Degenerate oligonucleotide cassettes were made by annealing and amplifying P20 and P21 encoding a biased library designed around the Pbs2p proline rich sequence ([…]) (SEQ ID NO: 33) that interacts with the SH3 domain of Sho1p. Translation of the cassette gives X(L/V/P/A)N(K/R)PLP(P/S/A)LP(L/V/P/A)X (SEQ ID NO: 34). At the DNA level, this oligonucleotide should give rise to a library with a theoretical complexity of 98,304. The cassette was ligated into STM pJG4-5, and grown up in XL10 Gold cells (Stratagene). The midi-prepped (Qiagen) DNA was used to create a yeast library of 6×10⁴ cells in EGY48, theoretically covering 60% of the sequences encoded by the library. These cells were mated with EGY42 cells carrying pEG202-Sho1-SH3, made as described above. Interactors were selected on -UHTL/X-Gal/Gal-Raff plates for 4 days, picked and the plasmids rescued into E. coli KC8 cells. The plasmids were transformed back into EGY48 to confirm interaction with the SH3 domain of Sho1p in EGY42 using an interaction-mating matrix.

[2] = biological target: T2, SH3 domain of yeast Sho1p (yeast …); experiment: yeast two-hybrid screen
Excerpt: as §1

[3] = biological target: T2, SH3 domain of yeast Sho1p (yeast …); experiment: yeast two-hybrid interaction mating
Excerpt: The yeast genome encodes 25 proteins that between them comprise 28 SH3 domains. Each domain, or combination of domains, was cloned as a yeast two hybrid bait, and tested by interaction mating for its ability to recognise AptA. […] The SH3 domain of Bud14 is a self-activating bait, giving rise to a blue colour even when mated to an empty prey plasmid. […] AptA* is the mutant version of AptA where the two proline residues of the PxxP motif have been changed to alanines (PP/AA). STM is the empty scaffold.

[4] = biological target: the molecule itself; experiment: gel filtration (self-association, domain-swapped dimer)
Procedure: (§2) To confirm that the engineered scaffold was correctly folded, we used gel filtration chromatography to ask whether we could detect any denatured or dimerized STM in its native form. Recombinant STM AU1 migrated close to its predicted size and similarly to wild type SteA (FIG. 3, panel A). When the protein preparations were heated to 75° C. before gel filtration, a proportion of SteA migrated as a dimer. […] The CD spectra of native SteA at 25° C. and 50° C. and native STM AU1 at 25° C. and 50° C.

[5] = biological target: T1, carboxymethylated papain on agarose …; experiment: papain-agarose pull-down, western blot with anti-SteA
Procedure: Agarose beads carrying carboxymethylated papain (Calbiochem) were washed three times in EB (equilibration buffer: 50 mM sodium phosphate pH 6.5, 0.5M NaCl, 0.1% non-detergent sulfobetaines). The beads were blocked with 1 mg/ml BSA in EB for 30 mins at 4° C. and washed three more times in EB. 300 μg of recombinant SteA or STM AU1 in 1×TBS buffer was diluted into EB to produce a total of volume of 500 μL and incubated with the beads with turning end over end for 90 mins at 4° C. The beads were then washed three times in EB and resuspended in 50 μl of sample buffer for analysis by 12% SDS-PAGE gel and western blotting using an anti-steA monoclonal antibody (C5/2, Maryland Biosciences).

[6] = biological target: the molecule itself; experiment: gel filtration after heating to 75° C. (self-association)
Procedure: as §2

[7] = biological target: the molecule itself; experiment: SDS-PAGE after 75° C. or ice (self-association)
Procedure: We wished to ascertain whether we could insert peptides into STM without affecting its stability as a protein. We modelled a peptide aptamer by inserting the six residue “AU1” epitope tag (DTYRYI) (SEQ ID NO: 32) into the engineered loop. We wished to retain the thermostability of SteA but abolish its dimerization by domain-swapping, which is enhanced by heating. We incubated recombinant SteA, STM and STM AU1 at 75° C. or on ice for 20 minutes, and removed any denatured protein by centrifugation. […] As expected, this dimeric form is completely abolished in both STM and STM AU1 (FIG. 2A).

T2 sequence (P40073 300-367 limits assumed): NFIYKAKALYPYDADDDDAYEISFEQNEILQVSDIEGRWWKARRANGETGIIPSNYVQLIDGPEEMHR

Binder	binding result [1]	binding result [2]	also measured
STM peptide aptamer 07 (designed binder, Insert (with its GP ends) constrained in STM) MIPWGLSEAKPATPEIQEIVDKVKPQLEEKTNETYGKLEAVQYKTQVDAGTNYYIKVRAGDNKYMHLKVFNGPPNVKPLPALPLMGPLLNKPLPALPLDGPPGQNEDLVLTGYQVDKNKDDELTGF	binds		
STM peptide aptamer 08 (designed binder, Insert (with its GP ends) constrained in STM) MIPWGLSEAKPATPEIQEIVDKVKPQLEEKTNETYGKLEAVQYKTQVDAGTNYYIKVRAGDNKYMHLKVFNGPDPNRPLPSLPVTGPYLNKPLPALPVSGPPGQNEDLVLTGYQVDKNKDDELTGF	binds		
STM peptide aptamer 10 (designed binder, Insert (with its GP ends) constrained in STM) MIPWGLSEAKPATPEIQEIVDKVKPQLEEKTNETYGKLEAVQYKTQVDAGTNYYIKVRAGDNKYMHLKVFNGPILNKPLPALPLRGPDPNRPLPALPVTGPPGQNEDLVLTGYQVDKNKDDELTGF	binds		
STM peptide aptamer 11 (designed binder, Insert (with its GP ends) constrained in STM) MIPWGLSEAKPATPEIQEIVDKVKPQLEEKTNETYGKLEAVQYKTQVDAGTNYYIKVRAGDNKYMHLKVFNGPFPNKPLPALPLTGPVLNRPLPPLPRNGPPGQNEDLVLTGYQVDKNKDDELTGF	binds		
STM peptide aptamer 13 (designed binder, Insert (with its GP ends) constrained in STM) MIPWGLSEAKPATPEIQEIVDKVKPQLEEKTNETYGKLEAVQYKTQVDAGTNYYIKVRAGDNKYMHLKVFNGPYLNKPLPSLPLCGPSVNRPLPALPDVGPPGQNEDLVLTGYQVDKNKDDELTGF	binds		
STM peptide aptamer 17 (designed binder, Insert (with its GP ends) constrained in STM) MIPWGLSEAKPATPEIQEIVDKVKPQLEEKTNETYGKLEAVQYKTQVDAGTNYYIKVRAGDNKYMHLKVFNGPEPNKPLPALPLTGPVLNRPLPPLPRNGPPGQNEDLVLTGYQVDKNKDDELTGF	binds		
STM peptide aptamer 20 (designed binder, Insert (with its GP ends) constrained in STM) MIPWGLSEAKPATPEIQEIVDKVKPQLEEKTNETYGKLEAVQYKTQVDAGTNYYIKVRAGDNKYMHLKVFNGPRMNKPLPSLPLGGPAMNKPLPALPLQGPPGQNEDLVLTGYQVDKNKDDELTGF	binds		
STM peptide aptamer 03 (designed binder, Insert (with its GP ends) constrained in STM; also called Apt03) MIPWGLSEAKPATPEIQEIVDKVKPQLEEKTNETYGKLEAVQYKTQVDAGTNYYIKVRAGDNKYMHLKVFNGPDLNKPLPALPVHGPPGQNEDLVLTGYQVDKNKDDELTGF	binds		
STM peptide aptamer 05 (designed binder, Insert (with its GP ends) constrained in STM; also called Apt05; Pep05) MIPWGLSEAKPATPEIQEIVDKVKPQLEEKTNETYGKLEAVQYKTQVDAGTNYYIKVRAGDNKYMHLKVFNGPNLNKPLPALPVLGPPGQNEDLVLTGYQVDKNKDDELTGF	binds		
AptA (peptide aptamer A in truncated STM) (designed binder, Scaffold ends at the in-frame stop codon after the 11mer (unconstrained C-terminal peptide); also called PepA; pepA) MIPWGLSEAKPATPEIQEIVDKVKPQLEEKTNETYGKLEAVQYKTQVDAGTNYYIKVRAGDNKYMHLKVFNGPRLNKPLPSLPV		binds	
Apt32 (peptide aptamer 032 in truncated STM) (designed binder, Scaffold ends at the in-frame stop codon after the 11mer; also called Pep32) MIPWGLSEAKPATPEIQEIVDKVKPQLEEKTNETYGKLEAVQYKTQVDAGTNYYIKVRAGDNKYMHLKVFNGPLPNKPLPSLPL		binds	
Apt124 (peptide aptamer 124 in truncated STM) (designed binder, Scaffold ends at the in-frame stop codon after the 11mer) MIPWGLSEAKPATPEIQEIVDKVKPQLEEKTNETYGKLEAVQYKTQVDAGTNYYIKVRAGDNKYMHLKVFNGPRGNKPLPALPL		binds	
AptA* (AptA with the two prolines of the PxxP motif changed to alanines) (designed binder, also called AptA PP/AA; AxxA mutation of AptA) MIPWGLSEAKPATPEIQEIVDKVKPQLEEKTNETYGKLEAVQYKTQVDAGTNYYIKVRAGDNKYMHLKVFNGPRLNKPLASLAV			binding result [3]: no binding
Apt34 (peptide aptamer 034 in truncated STM) (designed binder, Truncated by a frame-shift and an out-of-frame stop codon) MIPWGLSEAKPATPEIQEIVDKVKPQLEEKTNETYGKLEAVQYKTQVDAGTNYYIKVRAGDNKYMHLKVFNGPSVNKPLPSLPSLPVYGP		binds	
Apt40 (peptide aptamer 040 in truncated STM) (designed binder, Truncated by a frame-shift and an out-of-frame stop codon) MIPWGLSEAKPATPEIQEIVDKVKPQLEEKTNETYGKLEAVQYKTQVDAGTNYYIKVRAGDNKYMHLKVFNGPVENKPLPALPAVGP		binds	
Apt94 (peptide aptamer 094 in truncated STM) (designed binder, Truncated by a frame-shift and an out-of-frame stop codon) MIPWGLSEAKPATPEIQEIVDKVKPQLEEKTNETYGKLEAVQYKTQVDAGTNYYIKVRAGDNKYMHLKVFNGPANKPLPALPALGSAVE		binds	
wild type Stefin A (human, recombinant) (other, Expressed in E. coli from pET30a(+) with a hexa-histidine tag; also called SteA; Cystatin A) MIPGGLSEAKPATPEIQEIVDKVKPQLEEKTNETYGKLEAVQYKTQVVAGTNYYIKVRAGDNKYMHLKVFKSLPGQNEDLVLTGYQVDKNKDDELTGF			binding result [4]: binds
STM comprising target peptide AU1 epitope (designed binder, Expressed in E. coli from pET30a(+) with a hexa-histidine tag; also called STM AU1; STM/AU1) MIPWGLSEAKPATPEIQEIVDKVKPQLEEKTNETYGKLEAVQYKTQVDAGTNYYIKVRAGDNKYMHLKVFNGPDTYRYIGPPGQNEDLVLTGYQVDKNKDDELTGF			binding result [5]: no binding (tested: 300 µg); binding result [6]: no binding
STM (Stefin A Triple Mutant), recombinant, no insert (designed binder, Expressed in E. coli from pET30a(+) with a hexa-histidine tag; also called STM triple mutant) MIPWGLSEAKPATPEIQEIVDKVKPQLEEKTNETYGKLEAVQYKTQVDAGTNYYIKVRAGDNKYMHLKVFNGPPGQNEDLVLTGYQVDKNKDDELTGF			binding result [7]: no binding
